Measurements taken from publication PMC6697693.

Biological target: Δ258-UNC-23, stable fragment of UNC-23, fluorescently labelled (C. elegans)
Sequence (main, as listed by the source mutant): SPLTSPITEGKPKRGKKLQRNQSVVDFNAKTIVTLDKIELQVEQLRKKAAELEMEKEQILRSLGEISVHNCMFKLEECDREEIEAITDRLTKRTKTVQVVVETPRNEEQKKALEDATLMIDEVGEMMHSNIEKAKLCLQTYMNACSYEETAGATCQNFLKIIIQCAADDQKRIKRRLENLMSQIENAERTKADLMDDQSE

wild type Hsc70 (nematode Hsc70, HSP-1), sequence (P09446 whole entry): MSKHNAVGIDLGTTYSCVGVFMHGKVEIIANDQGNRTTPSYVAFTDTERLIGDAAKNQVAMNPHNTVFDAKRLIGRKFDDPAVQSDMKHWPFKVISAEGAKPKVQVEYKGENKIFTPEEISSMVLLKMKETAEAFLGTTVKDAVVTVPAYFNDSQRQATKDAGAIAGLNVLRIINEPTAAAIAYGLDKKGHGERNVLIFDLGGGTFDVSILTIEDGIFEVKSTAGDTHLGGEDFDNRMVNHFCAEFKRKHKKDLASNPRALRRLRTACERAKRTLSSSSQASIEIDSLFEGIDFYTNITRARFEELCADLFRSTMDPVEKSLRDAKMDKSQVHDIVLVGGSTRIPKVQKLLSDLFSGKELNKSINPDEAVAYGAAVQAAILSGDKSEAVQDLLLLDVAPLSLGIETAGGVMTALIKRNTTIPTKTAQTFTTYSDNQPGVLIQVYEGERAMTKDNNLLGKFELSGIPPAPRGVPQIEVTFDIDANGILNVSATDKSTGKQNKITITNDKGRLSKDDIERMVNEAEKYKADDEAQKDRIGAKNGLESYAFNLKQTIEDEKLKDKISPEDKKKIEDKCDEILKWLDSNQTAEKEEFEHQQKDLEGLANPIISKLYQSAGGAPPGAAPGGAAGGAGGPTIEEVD

## Hsc70 A379V (from UniProt P09446 1-640) (natural protein)
  ATPase stimulation (stimulated minus unstimulated turnover), 3 µM Hsc70 A379V with 3 µM UNC-23: 0.02 min⁻¹

## Hsc70 D233N (from UniProt P09446 1-640) (natural protein)
  ATPase stimulation (stimulated minus unstimulated turnover), 3 µM Hsc70 D233N with 3 µM UNC-23: 0.12 min⁻¹

## Hsc70 D384N (from UniProt P09446 1-640) (natural protein)
  ATPase stimulation (stimulated minus unstimulated turnover), 3 µM Hsc70 D384N with 3 µM UNC-23: 0.24 min⁻¹

## wild type Hsc70 (nematode Hsc70, HSP-1) (from UniProt P09446 1-640) (natural protein)
  ATPase stimulation (stimulated minus unstimulated turnover), 3 µM Hsc70 with 3 µM UNC-23: 0.18 min⁻¹
